Measured values from article PMC2734569, “Functional mapping of the fission yeast DNA polymerase δ B-subunit Cdc1 by site-directed and random pentapeptide insertion mutagenesis” (BMC Molecular Biology, 2009).

Columns and labels:
Assay in all cases: two-hybrid; LexA-Cdc1 bait (pBTM116 or pBTM116BN) with Gal4 activation domain-Cdc27 prey (pGAD2F-Cdc27) in S. cerevisiae CTY10-5d; ONPG liquid culture beta-galactosidase assay, mean of triplicates, as percent of wild-type Cdc1
Settings in all cases: partners not purified
Cdc1-J1 = biological target: T1, Cdc1-J1 (Schizosaccharomyces pombe, UniProt P87324 1-462, Thr-GlyValProLeuThr-Gly)
T1 construct: Cdc1, S. pombe, with a pentapeptide inserted after residue 141; source: yeast two-hybrid fusion, in S. cerevisiae CTY10-5d
T1 sequence (looked up): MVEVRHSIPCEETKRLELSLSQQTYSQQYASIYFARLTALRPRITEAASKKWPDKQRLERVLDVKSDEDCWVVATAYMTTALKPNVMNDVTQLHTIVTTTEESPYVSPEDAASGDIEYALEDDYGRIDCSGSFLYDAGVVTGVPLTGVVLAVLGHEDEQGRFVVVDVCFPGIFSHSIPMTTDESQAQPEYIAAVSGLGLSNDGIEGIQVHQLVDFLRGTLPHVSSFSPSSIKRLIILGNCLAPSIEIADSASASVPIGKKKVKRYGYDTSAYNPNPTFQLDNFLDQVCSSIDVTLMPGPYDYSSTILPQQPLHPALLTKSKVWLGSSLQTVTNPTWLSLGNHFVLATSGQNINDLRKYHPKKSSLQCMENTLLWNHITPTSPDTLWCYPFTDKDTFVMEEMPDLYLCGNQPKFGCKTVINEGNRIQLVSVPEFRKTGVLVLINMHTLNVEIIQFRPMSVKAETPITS

Cdc1-E9 = biological target: T2, Cdc1-E9 (Schizosaccharomyces pombe, UniProt P87324 1-462, Tyr-GlyGlyTyrProTyr-Gly)
T2 construct: Cdc1, S. pombe, with a pentapeptide inserted after residue 124; source: yeast two-hybrid fusion, in S. cerevisiae CTY10-5d
T2 sequence (looked up): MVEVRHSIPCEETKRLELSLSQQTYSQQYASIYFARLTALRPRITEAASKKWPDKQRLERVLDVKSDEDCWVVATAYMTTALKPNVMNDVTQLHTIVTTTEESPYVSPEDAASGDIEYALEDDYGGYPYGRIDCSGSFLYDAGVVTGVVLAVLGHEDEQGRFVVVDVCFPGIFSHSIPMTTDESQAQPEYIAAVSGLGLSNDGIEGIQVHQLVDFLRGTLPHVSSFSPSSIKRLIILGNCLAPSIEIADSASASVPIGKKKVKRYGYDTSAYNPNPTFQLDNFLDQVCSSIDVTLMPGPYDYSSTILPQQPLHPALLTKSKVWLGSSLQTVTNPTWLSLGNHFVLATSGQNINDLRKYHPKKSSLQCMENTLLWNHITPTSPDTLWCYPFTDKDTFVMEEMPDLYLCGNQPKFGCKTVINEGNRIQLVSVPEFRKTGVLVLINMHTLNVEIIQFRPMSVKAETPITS

Cdc1-E1 = biological target: T3, Cdc1-E1 (Schizosaccharomyces pombe, UniProt P87324 1-462, Ser-GlyValProGlnSer-Asp)
T3 construct: Cdc1, S. pombe, with a pentapeptide inserted after residue 66; source: yeast two-hybrid fusion, in S. cerevisiae CTY10-5d
T3 sequence (looked up): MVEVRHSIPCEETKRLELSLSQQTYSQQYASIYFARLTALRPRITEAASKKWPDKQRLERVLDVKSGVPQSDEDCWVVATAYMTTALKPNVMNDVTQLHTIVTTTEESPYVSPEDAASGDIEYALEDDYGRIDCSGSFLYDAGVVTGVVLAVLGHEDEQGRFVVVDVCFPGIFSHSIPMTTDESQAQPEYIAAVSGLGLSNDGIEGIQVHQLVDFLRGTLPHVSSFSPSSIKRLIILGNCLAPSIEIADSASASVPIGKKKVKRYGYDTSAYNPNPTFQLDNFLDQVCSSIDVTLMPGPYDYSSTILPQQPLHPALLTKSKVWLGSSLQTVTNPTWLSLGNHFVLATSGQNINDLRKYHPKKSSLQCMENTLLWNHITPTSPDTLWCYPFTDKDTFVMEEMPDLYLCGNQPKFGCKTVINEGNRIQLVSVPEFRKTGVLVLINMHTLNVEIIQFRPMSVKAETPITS

Cdc1-A7 = biological target: T4, Cdc1-A7 (Schizosaccharomyces pombe, UniProt P87324 1-462, Gly344Ala)
T4 construct: Cdc1, S. pombe, point mutant; source: yeast two-hybrid fusion, in S. cerevisiae CTY10-5d
T4 sequence (looked up): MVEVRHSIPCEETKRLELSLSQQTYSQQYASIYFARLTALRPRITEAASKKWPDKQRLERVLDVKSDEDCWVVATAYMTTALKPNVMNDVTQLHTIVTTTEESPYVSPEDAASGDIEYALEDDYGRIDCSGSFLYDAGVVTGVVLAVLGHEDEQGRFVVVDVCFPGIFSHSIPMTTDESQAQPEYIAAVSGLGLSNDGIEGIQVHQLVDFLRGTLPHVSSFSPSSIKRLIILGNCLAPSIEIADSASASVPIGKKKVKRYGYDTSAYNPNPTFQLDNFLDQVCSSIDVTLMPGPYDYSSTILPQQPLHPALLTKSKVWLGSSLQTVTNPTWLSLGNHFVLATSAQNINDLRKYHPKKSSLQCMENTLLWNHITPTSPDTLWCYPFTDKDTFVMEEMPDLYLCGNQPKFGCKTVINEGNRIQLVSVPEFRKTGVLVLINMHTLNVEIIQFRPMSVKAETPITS

two-hybrid beta-galactosidase activity, % of wild-type Cdc1 (Cdc1-J1): < 1%
two-hybrid beta-galactosidase activity, % of wild-type Cdc1 (Cdc1-E9): < 1%
two-hybrid beta-galactosidase activity, % of wild-type Cdc1 (Cdc1-E1): 1%
two-hybrid beta-galactosidase activity, % of wild-type Cdc1 (Cdc1-A7): < 1%
B1: Cdc27 (fission yeast DNA polymerase delta C-subunit) (natural protein, Schizosaccharomyces pombe, UniProt P30261 1-372, looked up)
chain: MEEWRNFLDIKVINESSLVTVDNLSLQLDISSEKAQEYLNMFYQGNDFLYPIYLIHGQPIDDEINLEIDEESQPISNFPVLQYILCDKSSLQEKQSRLKSGYKTVIFALSSAPLSDFDELLPAVYEIREKDVLYKKEDADKYGFIFNENSVPRVLKKAPSTHSPQLSVPSKTSTIDKTDTRSTEKTKGKDIFSNARNQKGNSSRKNKKAPLENHKEKEPLLPKEEKLSEQAKRERDDLKNIMQLEDESVSTTSVHDSEDDNLDSNNFQLEIGTEAKSAAPDEPQEIIKSVSGGKRRGKRKVKKYATTKDEEGFLVTKEEEVWESFSEDENISTGTSNVVRNKPTTVNIATKKKNTAQSKPQQKSIMSFFGKK
notes: DNA polymerase delta C-subunit Cdc27, S. pombe; prey plasmid pGAD2F-Cdc27; also called pGAD2F-Cdc27; source: yeast two-hybrid fusion, in S. cerevisiae CTY10-5d
